Laboratory results taken from PMC3317677 (International Journal of Molecular Sciences, 2012).
Changes are numbered by the printed parent chain.

B1: C9 IgG (chimeric mouse/human IgG) (antibody, V domains shown)
VH: EVQLQQSGAELVRPGASVKLSCKALGYRFTDYEMYWVKQTPAHGLEWIGGIHPRSGNTAYNQKFKDKATLTADKSSSTAYMELSSLTSEDSAVYYCTTSLYWGQGTLVTVSA
VL: DVLMTQTPLSLPVILGDQASISCRSSQSLVHSNGNTYLHWYLQKPGQSPKLLIYSIFNRFSGVPDRFSGSGSGTDFTLKISRVEAEDLGVYFCSQGTHVPWTFGGGTKLEIK
notes: Bivalent IgG
B2: F1 Fab (chimeric mouse/human Fab) (Fab, V domains shown)
VH: B1 VH with Q3K, Q5V, Q6E
VL: B1 VL with V2I, T7S, I14S, N33T, S55K, I56V, F57S, I111L
B3: C9 Fab (chimeric mouse/human Fab) (Fab, V domains shown)
VH: B1 VH
VL: B1 VL

Tests used:
[1] = molecular target: T1, DENV3 envelope protein domain III (EDIII, aa295-395) (Dengue virus type 3, …, UniProt P27915, strain); test: ELISA; conditions: both partners purified
T1 construct: also called DENV3 EDIII; EDIII from DENV3

[2] = molecular target: T2, DENV1 envelope protein domain III (EDIII, aa295-395) (Dengue virus type 1, Hawaii, strain); test: ELISA; conditions: both partners purified
T2 construct: also called DENV1 EDIII; EDIII from DENV1
T2 chain: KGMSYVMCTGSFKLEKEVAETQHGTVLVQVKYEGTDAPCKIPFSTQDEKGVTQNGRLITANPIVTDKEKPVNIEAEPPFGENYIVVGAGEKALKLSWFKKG

[3] = molecular target: T3, DENV4 envelope protein domain III (EDIII, aa295-395) (Dengue virus type 4, …, UniProt Q58HT7, strain); test: ELISA; conditions: both partners purified
T3 construct: also called DENV4 EDIII; EDIII from DENV4

[4] = molecular target: DENV2 envelope (E) protein in DENV2 infected BHK-21 cells (Dengue virus type 2, GenBank EU081177.1, UniProt A9LIC9, strain); test: immunostaining of cells or tissue; conditions: one partner purified

Row | Binder | fold stronger interaction than the C9 Fab (average) [1] [times] | fold stronger interaction than the C9 Fab (average) [2] [times] | binding result [3] | binding result [4] | binding result [1] | binding result [2]
1 | B1 | ~30 | ~30 | no binding | binds |  | 
2 | B2 |  |  |  |  | binds | binds
3 | B3 |  |  | no binding |  |  | 
